How the values were obtained:
Assay in all cases: holdup assay
Design in all cases: key: below the threshold = too weak to quantify, mostly under pKd 3.1 to 4
APBA2_1, Q99767 = target: T1, APBA2_1, Q99767
T1 sequence (Q99767 563-664, limits assumed, looked up): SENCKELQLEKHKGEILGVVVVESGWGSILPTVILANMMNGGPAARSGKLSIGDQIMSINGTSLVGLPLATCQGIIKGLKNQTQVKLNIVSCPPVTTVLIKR

APBA3_1, O96018 = target: T2, APBA3_1, O96018
T2 sequence (O96018 389-490, limits assumed, looked up): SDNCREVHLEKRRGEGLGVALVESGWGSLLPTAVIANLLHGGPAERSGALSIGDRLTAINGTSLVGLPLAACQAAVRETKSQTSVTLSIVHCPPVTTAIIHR

ARHGEF11, O15085 = target: T3, ARHGEF11, O15085
T3 sequence (O15085 42-136, limits assumed, looked up): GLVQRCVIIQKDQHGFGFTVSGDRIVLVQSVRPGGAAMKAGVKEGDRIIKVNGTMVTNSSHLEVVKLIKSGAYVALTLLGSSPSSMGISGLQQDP

ARHGEF12, Q9NZN5-2 = target: ARHGEF12, Q9NZN5-2
CARD11, Q9BXL7 = target: T4, CARD11, Q9BXL7
T4 sequence (Q9BXL7 662-765, limits assumed, looked up): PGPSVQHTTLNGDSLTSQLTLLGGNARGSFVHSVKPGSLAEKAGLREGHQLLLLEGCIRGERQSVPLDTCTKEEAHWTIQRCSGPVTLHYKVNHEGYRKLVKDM

CASK, O14936 = target: CASK, O14936
DLG5_1, Q8TDM6 = target: DLG5_1, Q8TDM6
DVL3, Q92997 = target: T5, DVL3, Q92997
T5 sequence (Q92997 244-331, limits assumed, looked up): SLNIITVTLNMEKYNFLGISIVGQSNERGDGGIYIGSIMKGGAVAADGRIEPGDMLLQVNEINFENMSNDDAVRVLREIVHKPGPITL

FRMPD1, Q5SYB0 = target: T6, FRMPD1, Q5SYB0
T6 sequence (Q5SYB0 52-145, limits assumed, looked up): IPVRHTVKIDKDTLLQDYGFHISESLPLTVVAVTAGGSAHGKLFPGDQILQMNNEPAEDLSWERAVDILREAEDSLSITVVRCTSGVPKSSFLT

GRIP1_2, Q9Y3R0 = target: T7, GRIP1_2, Q9Y3R0
T7 sequence (Q9Y3R0 145-248, limits assumed, looked up): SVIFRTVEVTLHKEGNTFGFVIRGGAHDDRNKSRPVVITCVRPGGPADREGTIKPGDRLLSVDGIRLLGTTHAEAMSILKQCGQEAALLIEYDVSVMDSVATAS

GRIP2_3, Q9C0E4 = target: GRIP2_3, Q9C0E4
GRIP2_6, Q9C0E4 = target: GRIP2_6, Q9C0E4
HTRA2, O43464 = target: HTRA2, O43464
IL16_1, Q14005 = target: IL16_1, Q14005
Inadl_6, Q8NI35 = target: Inadl_6, Q8NI35
MAGI2_6, Q86UL8 = target: MAGI2_6, Q86UL8
MPP6, Q9NZW5 = target: T8, MPP6, Q9NZW5
T8 sequence (Q9NZW5 125-219, limits assumed, looked up): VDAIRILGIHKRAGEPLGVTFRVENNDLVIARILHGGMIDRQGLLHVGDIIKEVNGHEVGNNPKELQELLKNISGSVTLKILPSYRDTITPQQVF

NHERF3_1, Q5T2W1 = target: T9, NHERF3_1, Q5T2W1
T9 sequence (Q5T2W1 4-100, limits assumed, looked up): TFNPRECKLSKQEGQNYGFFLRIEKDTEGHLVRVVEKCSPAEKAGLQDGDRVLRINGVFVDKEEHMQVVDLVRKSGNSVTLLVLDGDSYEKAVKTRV

NHERF4_2, Q86UT5 = target: NHERF4_2, Q86UT5
NOS1, P29475 = target: NOS1, P29475
PCLO, Q9Y6V0 = target: T10, PCLO, Q9Y6V0
T10 sequence (Q9Y6V0 4491-4600, limits assumed, looked up): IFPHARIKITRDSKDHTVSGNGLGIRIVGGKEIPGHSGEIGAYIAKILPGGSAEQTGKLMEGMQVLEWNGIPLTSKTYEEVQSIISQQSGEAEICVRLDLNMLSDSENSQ

PICK1, Q9NRD5 = target: PICK1, Q9NRD5
SNTA1, Q13424 = target: T11, SNTA1, Q13424
T11 sequence (Q13424 82-180, limits assumed, looked up): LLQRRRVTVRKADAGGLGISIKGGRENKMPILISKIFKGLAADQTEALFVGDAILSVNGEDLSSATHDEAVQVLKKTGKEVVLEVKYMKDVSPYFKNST

TIAM2, Q8IVF5 = target: T12, TIAM2, Q8IVF5
T12 sequence (Q8IVF5 885-986, limits assumed, looked up): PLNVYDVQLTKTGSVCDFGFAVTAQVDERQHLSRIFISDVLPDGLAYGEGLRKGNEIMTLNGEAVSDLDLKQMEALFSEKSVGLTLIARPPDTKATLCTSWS

TJP3_3, O95049 = target: T13, TJP3_3, O95049
T13 sequence (O95049 375-456, limits assumed, looked up): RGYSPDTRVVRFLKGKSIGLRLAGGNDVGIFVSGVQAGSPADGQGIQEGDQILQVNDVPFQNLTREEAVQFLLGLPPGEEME

[1] = plain residues with an end cap or a label only (N-terminal biotin on a linker: ado-ado)
[2] = modified: phospho on S at position -3 from the C-terminal residue
[3] = modified: acetyl on K at position -1 from the C-terminal residue

HTRA2, O43464, sequence (O43464 355-458): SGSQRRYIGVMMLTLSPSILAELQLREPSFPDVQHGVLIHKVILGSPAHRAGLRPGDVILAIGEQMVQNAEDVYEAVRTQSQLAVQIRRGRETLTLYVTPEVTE
PICK1, Q9NRD5, sequence (Q9NRD5 17-115): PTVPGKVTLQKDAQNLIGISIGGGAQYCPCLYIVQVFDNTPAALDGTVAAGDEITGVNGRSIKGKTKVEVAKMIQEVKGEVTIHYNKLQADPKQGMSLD
CASK, O14936, sequence (O14936 487-570): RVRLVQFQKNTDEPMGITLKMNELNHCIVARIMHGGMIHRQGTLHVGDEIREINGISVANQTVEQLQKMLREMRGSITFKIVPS
GRIP2_3, Q9C0E4, sequence (Q9C0E4 238-339): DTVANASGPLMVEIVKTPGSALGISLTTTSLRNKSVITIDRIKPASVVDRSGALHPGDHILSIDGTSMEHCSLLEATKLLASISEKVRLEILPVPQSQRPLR
Inadl_6, Q8NI35, sequence (Q8NI35 1058-1167): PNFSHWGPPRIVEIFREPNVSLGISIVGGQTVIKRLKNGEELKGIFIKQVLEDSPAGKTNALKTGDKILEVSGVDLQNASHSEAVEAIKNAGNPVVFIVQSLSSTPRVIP
IL16_1, Q14005, sequence (Q14005 210-306): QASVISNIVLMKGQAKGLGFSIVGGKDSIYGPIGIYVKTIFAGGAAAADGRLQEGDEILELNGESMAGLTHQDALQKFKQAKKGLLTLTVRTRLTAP
DLG5_1, Q8TDM6, sequence (Q8TDM6 617-713): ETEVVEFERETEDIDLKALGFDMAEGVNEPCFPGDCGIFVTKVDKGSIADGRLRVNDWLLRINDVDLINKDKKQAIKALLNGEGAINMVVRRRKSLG
MAGI2_6, Q86UL8, sequence (Q86UL8 1141-1229): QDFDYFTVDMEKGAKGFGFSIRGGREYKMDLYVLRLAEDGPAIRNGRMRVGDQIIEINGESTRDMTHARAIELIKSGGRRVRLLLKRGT
GRIP2_6, Q9C0E4, sequence (Q9C0E4 648-740): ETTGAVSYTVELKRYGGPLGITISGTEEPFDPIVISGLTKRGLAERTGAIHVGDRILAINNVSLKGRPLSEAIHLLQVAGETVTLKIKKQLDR
NOS1, P29475, sequence (P29475 9-101): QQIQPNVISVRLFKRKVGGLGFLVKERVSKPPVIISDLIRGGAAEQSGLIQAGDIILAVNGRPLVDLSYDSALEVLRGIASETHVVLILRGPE
NHERF4_2, Q86UT5, sequence (Q86UT5 220-308): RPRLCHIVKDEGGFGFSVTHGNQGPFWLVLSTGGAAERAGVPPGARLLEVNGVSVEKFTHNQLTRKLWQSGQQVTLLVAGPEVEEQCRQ
ARHGEF12, Q9NZN5-2, sequence (Q9NZN5 other isoform, or with tags, fused parts or gaps): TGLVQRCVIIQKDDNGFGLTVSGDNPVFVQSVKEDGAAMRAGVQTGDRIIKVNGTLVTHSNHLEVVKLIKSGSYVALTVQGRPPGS

PDGEMMEVLI [AMOTL1, Q8IY63]
pKd (APBA2_1, Q99767; [1]): below the threshold
pKd (APBA3_1, O96018; [1]): below the threshold
pKd (ARHGEF11, O15085; [1]): below the threshold
pKd (ARHGEF12, Q9NZN5-2; [1]): below the threshold
pKd (CARD11, Q9BXL7; [1]): below the threshold
pKd (CASK, O14936; [1]): below the threshold
pKd (DLG5_1, Q8TDM6; [1]): below the threshold
pKd (DVL3, Q92997; [1]): below the threshold
pKd (FRMPD1, Q5SYB0; [1]): below the threshold
pKd (GRIP1_2, Q9Y3R0; [1]): below the threshold
pKd (GRIP2_3, Q9C0E4; [1]): below the threshold
pKd (GRIP2_6, Q9C0E4; [1]): 3.47
pKd (HTRA2, O43464; [1]): below the threshold
pKd (IL16_1, Q14005; [1]): below the threshold
pKd (Inadl_6, Q8NI35; [1]): below the threshold
pKd (MAGI2_6, Q86UL8; [1]): below the threshold
pKd (MPP6, Q9NZW5; [1]): below the threshold
pKd (NHERF3_1, Q5T2W1; [1]): 4.05
pKd (NHERF4_2, Q86UT5; [1]): below the threshold
pKd (NOS1, P29475; [1]): 4.01
pKd (PCLO, Q9Y6V0; [1]): below the threshold
pKd (PICK1, Q9NRD5; [1]): below the threshold
pKd (SNTA1, Q13424; [1]): below the threshold
pKd (TIAM2, Q8IVF5; [1]): 3.86
pKd (TJP3_3, O95049; [1]): below the threshold

FEEEAEEEVA [TUBB4B, P68371]
pKd (APBA2_1, Q99767; [1]): below the threshold
pKd (APBA3_1, O96018; [1]): below the threshold
pKd (ARHGEF11, O15085; [1]): below the threshold
pKd (ARHGEF12, Q9NZN5-2; [1]): below the threshold
pKd (CARD11, Q9BXL7; [1]): below the threshold
pKd (CASK, O14936; [1]): below the threshold
pKd (DLG5_1, Q8TDM6; [1]): below the threshold
pKd (DVL3, Q92997; [1]): below the threshold
pKd (FRMPD1, Q5SYB0; [1]): below the threshold
pKd (GRIP1_2, Q9Y3R0; [1]): below the threshold
pKd (GRIP2_3, Q9C0E4; [1]): below the threshold
pKd (GRIP2_6, Q9C0E4; [1]): below the threshold
pKd (HTRA2, O43464; [1]): below the threshold
pKd (IL16_1, Q14005; [1]): below the threshold
pKd (Inadl_6, Q8NI35; [1]): below the threshold
pKd (MAGI2_6, Q86UL8; [1]): below the threshold
pKd (MPP6, Q9NZW5; [1]): below the threshold
pKd (NHERF3_1, Q5T2W1; [1]): below the threshold
pKd (NHERF4_2, Q86UT5; [1]): below the threshold
pKd (NOS1, P29475; [1]): below the threshold
pKd (PCLO, Q9Y6V0; [1]): below the threshold
pKd (PICK1, Q9NRD5; [1]): below the threshold
pKd (SNTA1, Q13424; [1]): below the threshold
pKd (TIAM2, Q8IVF5; [1]): 3.74
pKd (TJP3_3, O95049; [1]): below the threshold

RRVRKLPSTTL [RPS6KA1_-3P, Q15418]
pKd (APBA2_1, Q99767; [2]): below the threshold
pKd (APBA3_1, O96018; [2]): below the threshold
pKd (ARHGEF11, O15085; [2]): below the threshold
pKd (ARHGEF12, Q9NZN5-2; [2]): 3.79
pKd (CARD11, Q9BXL7; [2]): below the threshold
pKd (CASK, O14936; [2]): below the threshold
pKd (DLG5_1, Q8TDM6; [2]): below the threshold
pKd (DVL3, Q92997; [2]): below the threshold
pKd (FRMPD1, Q5SYB0; [2]): below the threshold
pKd (GRIP1_2, Q9Y3R0; [2]): below the threshold
pKd (GRIP2_3, Q9C0E4; [2]): below the threshold
pKd (GRIP2_6, Q9C0E4; [2]): below the threshold
pKd (HTRA2, O43464; [2]): 3.75
pKd (IL16_1, Q14005; [2]): below the threshold
pKd (Inadl_6, Q8NI35; [2]): below the threshold
pKd (MAGI2_6, Q86UL8; [2]): below the threshold
pKd (MPP6, Q9NZW5; [2]): below the threshold
pKd (NHERF3_1, Q5T2W1; [2]): below the threshold
pKd (NHERF4_2, Q86UT5; [2]): below the threshold
pKd (NOS1, P29475; [2]): below the threshold
pKd (PCLO, Q9Y6V0; [2]): below the threshold
pKd (PICK1, Q9NRD5; [2]): below the threshold
pKd (SNTA1, Q13424; [2]): 4.4
pKd (TIAM2, Q8IVF5; [2]): below the threshold
pKd (TJP3_3, O95049; [2]): below the threshold

DEDQHTQITKV [PTEN_Ac, P60484]
pKd (APBA2_1, Q99767; [3]): below the threshold
pKd (APBA3_1, O96018; [3]): below the threshold
pKd (ARHGEF11, O15085; [3]): 5.16
pKd (ARHGEF12, Q9NZN5-2; [3]): 4.47
pKd (CARD11, Q9BXL7; [3]): below the threshold
pKd (CASK, O14936; [3]): below the threshold
pKd (DLG5_1, Q8TDM6; [3]): below the threshold
pKd (DVL3, Q92997; [3]): below the threshold
pKd (FRMPD1, Q5SYB0; [3]): below the threshold
pKd (GRIP1_2, Q9Y3R0; [3]): below the threshold
pKd (GRIP2_3, Q9C0E4; [3]): below the threshold
pKd (GRIP2_6, Q9C0E4; [3]): below the threshold
pKd (HTRA2, O43464; [3]): below the threshold
pKd (IL16_1, Q14005; [3]): 3.84
pKd (Inadl_6, Q8NI35; [3]): 4.37
pKd (MAGI2_6, Q86UL8; [3]): 4.57
pKd (MPP6, Q9NZW5; [3]): below the threshold
pKd (NHERF3_1, Q5T2W1; [3]): 4.16
pKd (NHERF4_2, Q86UT5; [3]): below the threshold
pKd (NOS1, P29475; [3]): 3.81
pKd (PCLO, Q9Y6V0; [3]): below the threshold
pKd (PICK1, Q9NRD5; [3]): 3.75
pKd (SNTA1, Q13424; [3]): 4.71
pKd (TIAM2, Q8IVF5; [3]): below the threshold
pKd (TJP3_3, O95049; [3]): below the threshold

LETREPTNTL [GRIP1, Q9Y3R0]
pKd (APBA2_1, Q99767; [1]): below the threshold
pKd (APBA3_1, O96018; [1]): below the threshold
pKd (ARHGEF11, O15085; [1]): below the threshold
pKd (ARHGEF12, Q9NZN5-2; [1]): below the threshold
pKd (CARD11, Q9BXL7; [1]): below the threshold
pKd (CASK, O14936; [1]): below the threshold
pKd (DLG5_1, Q8TDM6; [1]): below the threshold
pKd (DVL3, Q92997; [1]): below the threshold
pKd (FRMPD1, Q5SYB0; [1]): below the threshold
pKd (GRIP1_2, Q9Y3R0; [1]): below the threshold
pKd (GRIP2_3, Q9C0E4; [1]): below the threshold
pKd (GRIP2_6, Q9C0E4; [1]): below the threshold
pKd (HTRA2, O43464; [1]): below the threshold
pKd (IL16_1, Q14005; [1]): below the threshold
pKd (Inadl_6, Q8NI35; [1]): below the threshold
pKd (MAGI2_6, Q86UL8; [1]): below the threshold
pKd (MPP6, Q9NZW5; [1]): 3.61
pKd (NHERF3_1, Q5T2W1; [1]): below the threshold
pKd (NHERF4_2, Q86UT5; [1]): below the threshold
pKd (NOS1, P29475; [1]): below the threshold
pKd (PCLO, Q9Y6V0; [1]): below the threshold
pKd (PICK1, Q9NRD5; [1]): below the threshold
pKd (SNTA1, Q13424; [1]): below the threshold
pKd (TIAM2, Q8IVF5; [1]): below the threshold
pKd (TJP3_3, O95049; [1]): below the threshold
